Data: paper PMC9168760, “A novel AMPK activator shows therapeutic potential in hepatocellular carcinoma by suppressing HIF1α‐mediated aerobic glycolysis” (Molecular Oncology, 2022)

Target: T1, hypoxia‐inducible factor 1‐alpha (human (endogenous in PLC5), UniProt Q16665 1-826)
T1 construct: HIF1α, endogenous protein of human HCC cells, immunoprecipitated or blotted with HIF1α antibodies; also called HIF1α
Test: co-IP; cells treated with DMSO or SCT‐1015; immunoprecipitation with HIF1α antibodies, blot for PHD3; 400 μg whole‐cell extract, 4 μg antibody overnight at 4 °C, protein A/G magnetic beads
Conditions: partners not purified

T1 sequence (Q16665 whole entry): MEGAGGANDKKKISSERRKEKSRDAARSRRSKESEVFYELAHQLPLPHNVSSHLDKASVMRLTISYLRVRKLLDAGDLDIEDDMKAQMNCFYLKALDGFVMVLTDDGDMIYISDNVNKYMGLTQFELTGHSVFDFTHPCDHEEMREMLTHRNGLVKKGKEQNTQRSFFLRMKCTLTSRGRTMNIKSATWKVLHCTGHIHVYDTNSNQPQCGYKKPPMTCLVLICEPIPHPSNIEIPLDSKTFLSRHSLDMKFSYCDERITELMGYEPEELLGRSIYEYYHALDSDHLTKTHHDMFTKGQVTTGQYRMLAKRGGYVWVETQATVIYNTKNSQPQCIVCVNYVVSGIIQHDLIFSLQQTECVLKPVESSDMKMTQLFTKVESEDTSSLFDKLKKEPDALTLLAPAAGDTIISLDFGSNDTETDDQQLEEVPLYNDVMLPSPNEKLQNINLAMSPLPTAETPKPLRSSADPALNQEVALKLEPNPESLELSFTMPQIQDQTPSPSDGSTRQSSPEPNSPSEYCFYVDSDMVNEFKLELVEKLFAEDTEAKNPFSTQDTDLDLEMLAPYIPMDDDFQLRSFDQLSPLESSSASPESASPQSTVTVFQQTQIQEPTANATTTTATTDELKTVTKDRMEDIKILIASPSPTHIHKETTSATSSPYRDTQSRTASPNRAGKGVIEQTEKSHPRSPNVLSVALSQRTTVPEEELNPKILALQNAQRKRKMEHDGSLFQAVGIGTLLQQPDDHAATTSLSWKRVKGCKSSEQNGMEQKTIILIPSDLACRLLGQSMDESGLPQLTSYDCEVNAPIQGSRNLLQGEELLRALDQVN

B1: prolyl hydroxylase 3 (enzyme, human (endogenous in HCC cells), UniProt Q9H6Z9 1-239, looked up)
chain: MPLGHIMRLDLEKIALEYIVPCLHEVGFCYLDNFLGEVVGDCVLERVKQLHCTGALRDGQLAGPRAGVSKRHLRGDQITWIGGNEEGCEAISFLLSLIDRLVLYCGSRLGKYYVKERSKAMVACYPGNGTGYVRHVDNPNGDGRCITCIYYLNKNWDAKLHGGILRIFPEGKSFIADVEPIFDRLLFFWSDRRNPHEVQPSYATRYAMTVWYFDAEERAEAKKKFRNLTRKTESALTED
notes: PHD3, endogenous protein detected with the PHD3 antibody (Abcam ab30782) in HIF1α immunoprecipitates; also called PHD3; PHD
fold change of the ratio PHD3/HIF1α in the HIF1α immunoprecipitate, SCT‐1015 against DMSO: 1.6 fold
